Test [1] deals with T1, human NPR-C (Homo sapiens, UniProt P17342).
T1 sequence (P17342 27-541): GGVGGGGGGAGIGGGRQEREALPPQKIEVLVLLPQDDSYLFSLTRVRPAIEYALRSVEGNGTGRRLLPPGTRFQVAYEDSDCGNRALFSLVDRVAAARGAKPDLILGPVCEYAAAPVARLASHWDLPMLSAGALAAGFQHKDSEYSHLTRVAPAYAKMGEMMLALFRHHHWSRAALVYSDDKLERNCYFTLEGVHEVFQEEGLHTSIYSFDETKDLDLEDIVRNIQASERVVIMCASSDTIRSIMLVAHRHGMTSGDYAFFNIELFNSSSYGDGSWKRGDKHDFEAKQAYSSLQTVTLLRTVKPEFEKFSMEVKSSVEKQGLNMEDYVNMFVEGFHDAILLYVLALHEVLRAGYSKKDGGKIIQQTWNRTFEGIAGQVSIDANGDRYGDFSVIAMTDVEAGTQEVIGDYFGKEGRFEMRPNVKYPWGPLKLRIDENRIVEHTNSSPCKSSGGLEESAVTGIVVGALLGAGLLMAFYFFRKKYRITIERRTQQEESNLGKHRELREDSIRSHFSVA
As to the kind of experiment: Binding to human NPR-C. Conditions: FIG. 3. The procedure: Human BNP and ASBNP.1 binding to human NPR-C was assessed using methods similar to those described elsewhere (Fan et al., Mol. Pharmacol., 67:174-83 (2005)).

Test [2] has as its target T2, rat NPR-A (Rattus norvegicus, UniProt P18910).
T2 construct: expressed in transfected cells; host or cells: HEK293 (293GCA cells)
T2 sequence (P18910 29-1057): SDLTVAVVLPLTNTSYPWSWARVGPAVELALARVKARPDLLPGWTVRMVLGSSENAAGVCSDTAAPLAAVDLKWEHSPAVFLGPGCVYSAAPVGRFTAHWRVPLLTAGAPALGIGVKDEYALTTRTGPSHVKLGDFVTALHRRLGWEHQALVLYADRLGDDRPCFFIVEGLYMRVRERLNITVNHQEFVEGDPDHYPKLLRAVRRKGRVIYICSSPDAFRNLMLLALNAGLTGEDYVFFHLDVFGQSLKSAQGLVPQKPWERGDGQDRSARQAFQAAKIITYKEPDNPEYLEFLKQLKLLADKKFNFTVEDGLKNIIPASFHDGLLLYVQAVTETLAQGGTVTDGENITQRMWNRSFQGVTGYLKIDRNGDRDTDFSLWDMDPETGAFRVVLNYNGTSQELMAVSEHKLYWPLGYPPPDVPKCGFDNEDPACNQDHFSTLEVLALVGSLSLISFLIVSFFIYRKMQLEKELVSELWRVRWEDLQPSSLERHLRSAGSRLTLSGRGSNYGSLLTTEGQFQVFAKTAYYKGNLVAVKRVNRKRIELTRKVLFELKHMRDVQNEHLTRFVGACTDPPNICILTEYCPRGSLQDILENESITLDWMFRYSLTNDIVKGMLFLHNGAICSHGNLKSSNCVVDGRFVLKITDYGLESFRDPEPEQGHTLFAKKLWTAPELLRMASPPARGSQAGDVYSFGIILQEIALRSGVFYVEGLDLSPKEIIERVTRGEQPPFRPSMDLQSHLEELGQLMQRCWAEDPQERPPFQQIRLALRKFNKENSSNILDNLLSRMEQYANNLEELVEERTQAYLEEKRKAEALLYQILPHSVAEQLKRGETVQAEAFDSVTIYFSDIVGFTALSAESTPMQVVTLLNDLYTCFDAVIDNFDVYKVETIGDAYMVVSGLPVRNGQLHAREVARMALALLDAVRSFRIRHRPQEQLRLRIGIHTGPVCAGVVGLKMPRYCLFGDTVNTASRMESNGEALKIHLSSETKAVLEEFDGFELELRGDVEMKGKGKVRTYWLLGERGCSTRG
Put plainly: cGMP production in HEK293 cells stably expressing rat NPR-A. Particulars: stimulated for 3 minutes, cGMP RIA (FIG. 1). Type of test: cell-based. The procedure:
(§1) HEK293 cells stably expressing rat NPR-A or NPR-B were prepared using methods similar to those described elsewhere (Fan et al., Mol. Pharmacol., 67:174-83 (2005); and Bryan and Potter, J. Biol. Chem., 277:16041-16047 (2002)). The cells were maintained in Dulbecco's modified Eagle's medium (DMEM) supplemented with 10% FBS, 100 units/mL penicillin, 100 μg/mL streptomycin, and 200 μg/mL G418. The cells were plated in 48-well plates and grown to 90% confluency. On the day of the assay, the cells were incubated in serum-free medium for 4 hours. The cells were pretreated for 10 minutes at 37° C. in DMEM containing 25 mM HEPES, pH 7.4 and 0.5 mM 1-methyl-3-isobutylxanthine by aspirating the starvation medium. After pretreatment, the medium was replaced with the same medium containing the indicated concentrations of natriuretic peptides. The cells were stimulated for 3 minutes with CNP, rat BNP, human BNP, ASBNP, or ASBNP.1. The reaction was stopped by aspiration of the medium and addition of 200 μL ice-cold 80% ethanol. Cyclic GMP concentrations were estimated from an aliquot of the ethanol extract using a Perkin Elmer cGMP RIA kit without acetylation as described elsewhere (Bryan and Potter, J. Biol. Chem., 277:16041-16047 (2002); and Abbey and Potter, J. Biol. Chem., 277:42423-30 (2002)).

Test [3] has as its target T3, rat NPR-B (Rattus norvegicus, UniProt P16067).
T3 construct: expressed in transfected cells; host or cells: HEK293 (293GCB cells)
T3 sequence (P16067 17-1047): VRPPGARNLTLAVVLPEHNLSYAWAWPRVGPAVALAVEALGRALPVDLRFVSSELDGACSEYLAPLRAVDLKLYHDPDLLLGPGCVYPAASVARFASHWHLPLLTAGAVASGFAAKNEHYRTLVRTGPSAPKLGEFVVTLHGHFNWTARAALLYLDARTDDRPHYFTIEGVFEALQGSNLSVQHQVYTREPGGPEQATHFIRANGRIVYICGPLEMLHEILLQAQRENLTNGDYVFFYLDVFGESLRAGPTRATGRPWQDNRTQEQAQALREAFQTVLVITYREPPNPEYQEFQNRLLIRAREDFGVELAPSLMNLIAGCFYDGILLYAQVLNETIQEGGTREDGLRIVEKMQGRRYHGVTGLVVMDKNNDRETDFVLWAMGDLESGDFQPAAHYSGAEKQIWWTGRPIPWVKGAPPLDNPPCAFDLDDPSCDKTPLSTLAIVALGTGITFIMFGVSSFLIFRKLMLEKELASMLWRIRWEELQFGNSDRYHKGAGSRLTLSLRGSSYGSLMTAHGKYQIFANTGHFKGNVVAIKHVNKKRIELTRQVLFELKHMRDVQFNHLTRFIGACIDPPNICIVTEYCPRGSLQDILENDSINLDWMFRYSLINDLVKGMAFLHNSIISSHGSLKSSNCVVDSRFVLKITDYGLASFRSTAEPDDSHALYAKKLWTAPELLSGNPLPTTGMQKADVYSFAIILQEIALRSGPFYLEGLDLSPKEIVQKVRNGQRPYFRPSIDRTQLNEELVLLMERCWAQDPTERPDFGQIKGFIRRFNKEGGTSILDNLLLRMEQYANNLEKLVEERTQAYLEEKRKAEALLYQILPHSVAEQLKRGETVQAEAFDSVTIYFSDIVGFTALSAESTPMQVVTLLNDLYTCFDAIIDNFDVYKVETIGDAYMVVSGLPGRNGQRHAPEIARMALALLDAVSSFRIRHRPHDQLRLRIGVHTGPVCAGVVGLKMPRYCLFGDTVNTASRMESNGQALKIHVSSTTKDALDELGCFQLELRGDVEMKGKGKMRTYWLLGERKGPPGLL
As to the kind of experiment: cGMP production in HEK293 cells stably expressing rat NPR-B. Conditions: stimulated for 3 minutes, cGMP RIA (FIG. 2). It counts as cell-based. The method, then: as §1

In the case of “ASBNP.1: ASBNP.1 polypeptide that is 42 amino acid residues in length (SEQ ID NO:1) (SPKMVQGSGCFGRKMDRISSSSGLGCKGKHPLPPRPPSPIPV)”, the “binding to human NPR-C” value in test [1] is given as “exhibited binding to human NPR-C”. Further, the “activation of cells expressing rat NPR-A (cGMP)” value in test [2] is given as “did not exhibit any activity”. As to “ASBNP.2: ASBNP.2 polypeptide, 60 amino acid residues in length with an alanine at position 43 (SEQ ID NO:3) (SPKMVQGSGCFGRKMDRISSSSGLGCKGKHPLPPRPPSPIPVADTVRVTLGFVVSGNHTL)”, the “activation of cells expressing rat NPR-B (cGMP)” value in test [3] is reported as “exhibited little, if any, activity”. With “BNP: human BNP, natriuretic polypeptide of myocardial cell origin; main form is a 32 amino acid polypeptide with a ring structure”, the “activation of cells expressing rat NPR-B (cGMP)” value in test [3] is reported as “exhibited little, if any, activity”. Besides, the “binding to human NPR-C” value in test [1] is “exhibited binding to human NPR-C”. Also, the “activation of cells expressing rat NPR-A (cGMP)” value in test [2] is “activated cells expressing rat NPR-A at concentrations in the mM range”. C-type natriuretic peptide [CNP]: the “activation of cells expressing rat NPR-B (cGMP)” value in test [3] is recorded as “activated cells expressing rat NPR-B”.
